Measured values: US12312398B2, “Compositions and methods for targeting activin signaling to treat cancer” (The Johns Hopkins University, priority 2016, dated 2025)

B1: Activin: Activin (or Activin A), a dimeric member of the TGF-β Superfamily, added exogenously to T cells (protein, UniProt P08476 311-426, looked up)
Inhibin beta A chain: GLECDGKVNICCKKQFFVSFKDIGWNDWIIAPSGYHANYCEGECPSHIAGTSGSSLSFHSTVINHYRMRGHSPFANLKSCCVPTKLRPMSMLYYDDGQNIIKKDIQNMIVEECGCS
modifications: Inhibin beta A chain homodimer

Key:
SMAD = SMAD phosphorylation by western blot in CD4+ T cells; format: cell-based, mice; conditions: CD4+CD25− T cells, anti-CD3/anti-CD28 24 hrs, then 12 hours treatment; Activin 5 or 10 ng/ml; TGF-β 0.5 or 2 ng/ml; versus untreated
Experimental: Cells were harvested and subjected to SDS-PAGE and Western blot with the indicated antibodies.
Since Activin has been reported to promote SMAD signaling in non-T cells (Schmierer, B., et al., J Biol Chem, 2003. 278:21197-203), whether Activin signaling in T cells could have a similar effect was examined SMAD activity was assessed by western blot analysis of SMAD phosphorylation.

naïve CD4+ T cells = test: In vitro Treg differentiation, intracellular Foxp3 by flow cytometry; format: cell-based, mice
Experimental: Naïve CD4+ T cells from Yap1f/f,Foxp3-yfpCre+ (KO) and Yap1 wt/wt,Foxp3ypfCre+ (WT) mice were stimulated with anti-CD3/CD28 antibodies (1 and 4 ug/ml, respectively) for 3 days in the presence of IL-2 (100 U/ml) and the indicated doses of TGFβ and exogenous Activin A. A low dose of TGF-beta and/or activin was also administered to the indicated samples (activin was dosed at 50 ng/ml on day 0 and day 2 of culture). Treg induction (via detection of intracellular Foxp3 up-regulation) was determined by flow cytometry.
To explore the involvement of Activin/ACVR1C signaling in the driving of Treg differentiation by YAP, the effects of supplemental Activin on in vitro Treg commitment was also investigated. Activation of wild type naïve CD4+ T cells without TGFI3 yielded little-to-no Foxp3 induction.
Naïve CD4+ T cells (CD4+ CD25− CD62LHi) were sorted on a FACS Aria high speed sorter. The sorted cells were activated with plate-bound aCD3 (10 ug/ml) and soluble aCD28 (2ug/ml) in a 24-well plate with the following polarizing conditions: Th1 (IL-12 (10 ng/ml), aIL-4 (10 ug/ml)), Th2 (IL-4 (10 ng/ml), aIFN-g(10 ug/ml), aIL-12 (10 ug/ml)), Th17 (IL-6 (10 ng/ml), TGF-b1 (1.25 ng/ml), IL-23 (10 ng/ml), IL-1b(10 ng/ml), aIFN-g (10 ug/ml), aIL-4 (10 ug/ml), Treg (TGFb1 (5 ng/ml), IL-2 (100IU/ml).
For extracellular staining, harvested cells were washed and incubated in PBS containing 1% FBS containing the below fluorochrome-conjugated antibodies in a U-bottom 96-well plate. For intracellular cytokine staining, harvested cells were re-stimulated in PMA and Ionomycin in the presence of Golg-Plug (BD Biosciences). After 5 hour incubation, the cells were fixed/permeablized (eBioscience) and incubated with antibodies. IFN-g PE, IFN-g APC, IL-13 PE, IL-17 APC (BD Bioscience), IL-2 APC (BD Pharmingen), Foxp3 PE (eBioscience). For cellular proliferation, Cell Trace CFSE cell proliferation kit (Invitrogen) was used per manufacture's manual.

Molecule	SMAD phosphorylation (phospho-SMAD) (SMAD)	Foxp3+ T cell induction (Treg induction) (naïve CD4+ T cells; wild type naïve CD4+ T cells, anti-CD3/CD28, IL-2 (100 U/ml), 3 days, activin 50 ng/ml on day 0 and day 2, low (suboptimal) dose TGF-β)	Foxp3+ T cell induction (Treg induction) (naïve CD4+ T cells; Foxp3-driven YAP knockout (Foxp3Cre+/Yap1f/f) naïve CD4+ T cells, anti-CD3/CD28, IL-2, 3 days)	Foxp3+ T cell induction (Treg induction) (naïve CD4+ T cells; wild type naïve CD4+ T cells, anti-CD3/CD28, IL-2 (100 U/ml), 3 days, activin 50 ng/ml on day 0 and day 2, low (suboptimal) dose TGF-β, listed as Activin A)
TGF-β: anti-inflammatory cytokine TGF-β, inducer of Foxp3 expression	induced SMAD phosphorylation	modest up-regulation of Foxp3	–	–
B1	elevation of phospho-SMAD	–	not seen	generated a population of Foxp3+ cells
